This passage reports Kd results from article PMC12269619 (2025).

Ends that are not written are not given here.

B6: Biotinylated junctional peptide Pep21 (PfCSP peptide 21) (peptide)
peptide: NPDPNANPNVDPNAN
modifications: also: biotinylated, position not given here

Assay [1] deals with PfCSPm. The assay is described as follows: BLI; KD2, second site.
Assay [2] has as its target T1, Biotinylated junctional peptide NPDP19 (Plasmodium falciparum (isolate 3D7), also: biotinylated, position not given here).
T1 chain: KQPADGNPDPNANPNVDPN
The assay is described as follows: BLI.

Assay [3] concerns the target PfCSPm. Kind of assay: BLI; KD1. On the technique in general: Biolayer interferometry detects binding as a change in optical thickness at a sensor tip.
Assay [4] concerns the target B6. Kind of assay: BLI.
The target of another assay is P3-10. The assay is described as follows: BLI.
The target in the next assay is P3-3. Kind of assay: BLI.
The next assay concerns the target P3-45. Kind of assay: BLI.
Another assay deals with P3-19. The assay is described as follows: BLI.
A further assay has as its target P3-7. Kind of assay: BLI.
A further assay concerns the target P3-9. The assay is described as follows: BLI.
For the next assay, the target named is P3-17. The assay is described as follows: BLI.

B1: m43.151 Fab (Fab, V domains shown)
VH: QVHLVQSGAEVKKPGASVKVSCKASGYTFTSYAIHWVRQAPGQRLEWMGWIKGGNGNTRYSQKFQDRVTITRDTSASTAYMELSSLRSEDTAVYYCALLTVITPDDAFDIWGQGTMVTVSS
VL: not shown
The Kd is the free concentration of one partner at which half of the binding sites on the other are occupied at equilibrium, for simple one-to-one binding. Regarding B1, the Kd was 1700 nM with PfCSPm [1], 2.2 nM in assay [2] and 38.3 nM in the assay with PfCSPm [3].

B2: m42.127 Fab (Fab, V domains shown)
VH: QVQLVQSGAEVKKPGASVKVSCKASGYTFTSYAIHWVRQAPGQRLEWMGWIKAGNGNTRYSQKFQDRVTITRDTSASTAYMELSSLRSEDTAVYYCALLTVITPDDTFDIWGQGTMVTVSS
VL: not shown
Regarding B2, the equilibrium dissociation constant (Kd) in the assay with PfCSPm [1] is 2000 nM; in assay [2], 2.2 nM; with PfCSPm [3], 31.6 nM.

B3: P3-21 Fab (m42.127 T99R_H P100Q_H) (Fab, V domains shown)
VH: QVQLVQSGAEVKKPGASVKVSCKASGYTFTSYAIHWVRQAPGQRLEWMGWIKAGNGNTRYSQKFQDRVTITRDTSASTAYMELSSLRSEDTAVYYCALLTVIRQDDTFDIWGQGTMVTVSS
VL: not shown
For the molecule B3, the Kd came to 1200 nM with PfCSPm [1], 2 nM in assay [2], 20.2 nM in the assay with PfCSPm [3] and 18 nM in [4].

B4: P3-42 Fab (m43.151 A100cR_H) (Fab, V domains shown)
VH: QVHLVQSGAEVKKPGASVKVSCKASGYTFTSYAIHWVRQAPGQRLEWMGWIKGGNGNTRYSQKFQDRVTITRDTSASTAYMELSSLRSEDTAVYYCALLTVITPDDRFDIWGQGTMVTVSS
VL: not shown
In the case of B4, the dissociation constant Kd turned out to be 3400 nM with PfCSPm [1], 2.6 nM in assay [2], 13 nM in the assay with PfCSPm [3] and 14.5 nM in [4].

B5: P3-43 Fab (m43.151 P100K_H) (Fab, V domains shown)
VH: QVHLVQSGAEVKKPGASVKVSCKASGYTFTSYAIHWVRQAPGQRLEWMGWIKGGNGNTRYSQKFQDRVTITRDTSASTAYMELSSLRSEDTAVYYCALLTVITKDDAFDIWGQGTMVTVSS
VL: not shown
On to B5, for which the values for the Kd (with PfCSPm [1]; in assay [2]; with PfCSPm [3]) were 1700 nM, 1.7 nM and 33.9 nM, respectively.
As to B6, the Kd with P3-10 stood at 20.4 nM; in the assay with P3-3 it was 15.4 nM; in the assay with P3-45, 19 nM; in the assay with P3-19, 14.6 nM; in the assay with P3-7 it was 24 nM; in the assay with P3-9, 21.8 nM. This molecule had a Kd in the assay with P3-17 of 17.8 nM.
